One molecule from patent US20180055925A1 (UNITED STATES OF AMERICA AS REPRESENTED BY THE SECRETARY …, published 2018) can be followed below.

For the experiment, the target named is T1, SpoIVA^AF488 (His6-tagged cysteine-less SpoIVA variant, C98S, with a single engineered N-terminal cysteine, … (Bacillus subtilis, UniProt P35149 1-492, Alexa Fluor 488 C5-maleimide on the single engineered cysteine at the N-terminus (second residue))).
T1 construct: SpoIVA polymerizes in the presence of ATP; also called SpoIVA^A488
T1 sequence: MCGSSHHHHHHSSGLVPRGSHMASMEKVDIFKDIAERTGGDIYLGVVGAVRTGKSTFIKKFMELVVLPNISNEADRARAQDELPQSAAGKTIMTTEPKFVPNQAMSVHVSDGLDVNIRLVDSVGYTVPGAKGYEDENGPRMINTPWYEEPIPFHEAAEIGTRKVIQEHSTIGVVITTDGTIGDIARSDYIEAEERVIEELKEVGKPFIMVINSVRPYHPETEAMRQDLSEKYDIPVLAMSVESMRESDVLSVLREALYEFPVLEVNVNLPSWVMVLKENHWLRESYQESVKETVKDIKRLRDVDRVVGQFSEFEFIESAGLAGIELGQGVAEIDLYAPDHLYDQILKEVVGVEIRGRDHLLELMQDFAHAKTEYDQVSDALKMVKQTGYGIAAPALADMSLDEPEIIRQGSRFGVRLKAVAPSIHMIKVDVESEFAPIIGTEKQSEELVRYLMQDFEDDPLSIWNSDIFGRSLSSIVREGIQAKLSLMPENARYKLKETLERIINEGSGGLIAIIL
The experiment in a line: fluorescence microscopy of SpoVM-coated SSLBs incubated with increasing SpoIVA^AF488. How it is done:
SpoVM-coated SSLBs were collected by centrifugation at 13,000×g for 1 minute, and then were incubated with varying concentrations of SpoIVA^AF488 in a final volume of 100 μL buffer A containing 10 mM MgCl₂ and 4 mM ATP, overnight at room temperature with gentle inversion. SSHEL particles were collected by centrifugation and resuspended in 100 μL buffer A for microscopy. For competition assays, SpoVM-SSLBs were incubated with 0.006 μM SpoIVA^A488 in the presence or absence of 4 mM ATP in buffer A containing 10 mM MgCl₂. The fluorescent SSLBs were collected by centrifugation, and resuspended with 100 μL buffer A containing 5 μM unlabeled SpoIVA. 5 μL aliquots were taken at indicated time points for microscopy.
To test this model of basement layer assembly in vitro, spherical supported lipid bilayers (SSLBs) were constructed by coating 2 μm-diameter silica beads with a phospholipid bilayer (Bayerl and Bloom, Biophys J 58, 357-362 (1990) and Gopalakrishnan and Rouiller, Langmuir 25, 5455-5458 (2009)) to mimic the surface of the forespore. […] The SpoVM-coated SSLBs were then incubated with increasing concentrations of SpoIVA^AF488 and measured its adsorption using fluorescence microscopy (FIG. 1C). […] At higher concentrations of SpoIVA^AF488 the heterogeneity in fluorescence between SSLBs was reduced and SpoIVA^AF488 adsorption approached saturation (FIG. 1C, 1E).

B1: SpoVM (synthesized 26 amino acid peptide, adsorbed on spherical supported lipid bilayers) (peptide)
peptide: MKFYTIKLPKFLGGIVRAMLGSFRKD
notes: also called SpoVM peptide; SpoVM-coated SSLBs
Consider B1, for which the binding result is “binds”.
